Source: patent publication US20220144956A1 (published 2022)
Where a chain is given by its changes, count along the chain named. Blank lines part the entries; values can stand above or below the binder they belong to.

Columns and labels:
[1] = biological target: Unstimulated Cyno CD4 T cells (cynomolgus monkey); experiment: FACS cell binding; CD4 T cells; avid
[2] = biological target: Unstimulated Cyno CD3+ cells (cynomolgus monkey); experiment: FACS cell binding; CD3+ cells; avid
[3] = biological target: Unstimulated Cyno CD8 T cells (cynomolgus monkey); experiment: FACS cell binding; CD8 T cells; avid
[4] = biological target: αCD5 (Clone 6) x αTGFßRII; experiment: Octet
[5] = biological target: αCD5 (Clone 7) x αTGFßRII; experiment: Octet
[6] = biological target: αCD5 (Clone 9) x αTGFßRII; experiment: Octet
[7] = biological target: αCD5 (Clone 8) x αTGFßRII; experiment: Octet
[8] = biological target: αCD5 (Clone 3) x αTGFßRII; experiment: Octet
[9] = biological target: αCD5 (Clone 5) x αTGFßRII; experiment: Octet
[10] = biological target: αCD5 (Clone 1) x αTGFßRII; experiment: Octet
[11] = biological target: αCD5 (Clone 11) x αTGFßRII; experiment: Octet
[12] = biological target: αCD5 (Clone 10) x αTGFßRII; experiment: Octet
[13] = biological target: αCD5 (Clone 4) x αTGFßRII; experiment: Octet
[14] = biological target: T1, His-tagged human CD5 antigen (human, UniProt P06127 25-372); experiment: Octet
T1 chain: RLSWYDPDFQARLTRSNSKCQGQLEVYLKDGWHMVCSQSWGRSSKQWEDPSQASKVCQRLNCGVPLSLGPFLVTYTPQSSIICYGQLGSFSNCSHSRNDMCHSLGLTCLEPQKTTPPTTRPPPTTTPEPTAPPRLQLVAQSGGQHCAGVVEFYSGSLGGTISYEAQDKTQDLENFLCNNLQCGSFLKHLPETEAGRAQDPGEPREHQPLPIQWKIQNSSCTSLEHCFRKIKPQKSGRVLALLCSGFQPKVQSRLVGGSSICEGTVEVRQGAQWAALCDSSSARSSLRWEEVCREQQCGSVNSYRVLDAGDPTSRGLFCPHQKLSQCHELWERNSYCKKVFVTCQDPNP

[15] = biological target: human TGFßRII (antigen of the Octet experiments) (human, UniProt P37173 23-166)
Chain of human TGFßRII (antigen of the Octet experiments) (P37173 23-166): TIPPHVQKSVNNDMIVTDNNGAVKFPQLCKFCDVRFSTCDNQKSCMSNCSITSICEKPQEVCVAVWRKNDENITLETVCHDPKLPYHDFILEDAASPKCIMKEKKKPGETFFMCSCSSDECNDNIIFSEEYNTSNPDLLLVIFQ

Kd [4]: 11.1 nM
Kd [5]: 2.05 nM
Kd [6]: 2.99 nM
Kd [7]: 8.72 nM
Kd [8]: 1.53 nM
Kd [9]: 12.9 nM
Kd [10]: 7.91 nM
Kd [11]: 18.6 nM
Kd [12]: 1.24 nM
Kd [13]: 7.03 nM
B2: Human (receptor)
chain: T1 chain

Kd [15]: 0.97 nM
Kd [14]: 1.69 nM
B4: XENP35399 (bispecific antibody)
heavy: EVQLVESGGGVVQPGRSLRLSCTFSGFSLSTSGMGVGWIRQAPGKGLEWVAHIWWDDDVYYNPSLKSRLTITKDASTDTVYMELSSLRSEDTAVYYCVRRRATGTGFDYWGQGTLVTVSSASTKGPSVFPLAPSSKSTSGGTAALGCLVKDYFPEPVTVSWNSGALTSGVHTFPAVLQSSGLYSLSSVVTVPSSSLGTQTYICNVNHKPSDTKVDKKVEPKSCDKTHTCPPCPAPPVAGPSVFLFPPKPKDTLMISRTPEVTCVVVDVKHEDPEVKFNWYVDGVEVHNAKTKPREEEYNSTYRVVSVLTVLHQDWLNGKEYKCKVSNKALPAPIEKTISKAKGQPREPQVYTLPPSREEMTKNQVSLTCDVSGFYPSDIAVEWESDGQPENNYKTTPPVLDSDGSFFLYSKLTVDKSRWEQGDVFSCSVMHEALHNHYTQKSLSLSPGK
scFv-Fc: QLQVQESGPGLVKPSETLSLTCTVSGGSISNSYFSWGWIRQPPGKGLEWIGSFYYGEKTYYNPSLKSRATISIDTSKSQFSLKLSSVTAADTAVYYCPRGPTVIRGVIDSWGQGTLVTVSSGKPGSGKPGSGKPGSGKPGSEIVLTQSPATLSLSPGERATLSCRASQSVRSYLAWYQQKPGQAPRLLIYDASNRATGIPARFSGSGSGTDFTLTISSLEPEDFAVYYCQQRSNWPPTFGQGTKVEIKEPKSSDKTHTCPPCPAPPVAGPSVFLFPPKPKDTLMISRTPEVTCVVVDVKHEDPEVKFNWYVDGVEVHNAKTKPREEQYNSTYRVVSVLTVLHQDWLNGKEYKCKVSNKALPAPIEKTISKAKGQPREPQVYTLPPSREQMTKNQVKLTCLVKGFYPSDIAVEWESNGQPENNYKTTPPVLDSDGSFFLYSKLTVDKSRWQQGNVFSCSVMHEALHNHYTQKSLSLSPGK
light: NIVMTQSPSSLSASVGDRVTITCQASQDVGTAVAWYQQKPDQSPKLLIYWTSTRHTGVPDRFTGSGSGTDFTLTISSLQPEDIATYFCHQYNSYNTFGSGTKLEIKRTVAAPSVFIFPPSDEQLKSGTASVVCLLNNFYPREAKVQWKVDNALQSGNSQESVTEQDSKDSTYSLSSTLTLSKADYEKHKVYACEVTHQGLSSPVTKSFNRGEC

Kd [15]: 6.1 nM
B5: XENP36132 (bispecific antibody)
heavy: B4 heavy
scFv-Fc: B4 scFv-Fc with S35Y, V103M
light: B4 light

Kd [14]: 6.67 nM
B6: XENP37385 (bispecific antibody)
heavy: EVQLKESGAELVRPGGSVKISCKGSGYTFTNFAIHWVKQSHIKTLEWIGLISTSSGDVSYNQKFKDKATMTVDKSSSTAYMELARLTSEDSAIYYCARHYGANNYFDYWGQGTLVTVSSASTKGPSVFPLAPSSKSTSGGTAALGCLVKDYFPEPVTVSWNSGALTSGVHTFPAVLQSSGLYSLSSVVTVPSSSLGTQTYICNVNHKPSDTKVDKKVEPKSCDKTHTCPPCPAPPVAGPSVFLFPPKPKDTLMISRTPEVTCVVVDVKHEDPEVKFNWYVDGVEVHNAKTKPREEEYNSTYRVVSVLTVLHQDWLNGKEYKCKVSNKALPAPIEKTISKAKGQPREPQVYTLPPSREEMTKNQVSLTCDVSGFYPSDIAVEWESDGQPENNYKTTPPVLDSDGSFFLYSKLTVDKSRWEQGDVFSCSVMHEALHNHYTQKSLSLSPGK
scFv-Fc: B4 scFv-Fc
light: EIVLTQSPTIMSASPGEQVTMTCRTNSSVSSSYLHWYQQKSGASPKLWIYGTSNLASGVPTRFSGSGSGTSYSLTISSVEAGDAATYFCQQYSGYPLTFGGGTKVEIKRTVAAPSVFIFPPSDEQLKSGTASVVCLLNNFYPREAKVQWKVDNALQSGNSQESVTEQDSKDSTYSLSSTLTLSKADYEKHKVYACEVTHQGLSSPVTKSFNRGEC

The remaining lines, values behind:

B1: XENP35401 anti-CD5 clone 5D7 Bivalent (antibody, V domains shown)
VH: EVQLVESGGGVVQPGRSLRLSCTFSGFSLSTSGMGVGWIRQAPGKGLEWVAHIWWDDDVYYNPSLKSRLTITKDASTDTVYMELSSLRSEDTAVYYCVRRRATGTGFDYWGQGTLVTVSS
VL: NIVMTQSPSSLSASVGDRVTITCQASQDVGTAVAWYQQKPDQSPKLLIYWTSTRHTGVPDRFTGSGSGTDFTLTISSLQPEDIATYFCHQYNSYNTFGSGTKLEIKR
EC50 [1]: 0.584 µg/mL
EC50 [2]: 0.508 µg/mL
EC50 [3]: 0.415 µg/mL

B3: XENP37388 (bispecific antibody)
heavy: QVTLKESGAELVRPGASVKLSCKASGYSFTSYWMNWVKQRPGQGLEWIGMIHPSDSETRLNQKFKDKATLTVDKSSSTAYMQLSSPTSEDSAVYYCARWGDHDDAMDFWGQGTMVTVSSASTKGPSVFPLAPSSKSTSGGTAALGCLVKDYFPEPVTVSWNSGALTSGVHTFPAVLQSSGLYSLSSVVTVPSSSLGTQTYICNVNHKPSDTKVDKKVEPKSCDKTHTCPPCPAPPVAGPSVFLFPPKPKDTLMISRTPEVTCVVVDVKHEDPEVKFNWYVDGVEVHNAKTKPREEEYNSTYRVVSVLTVLHQDWLNGKEYKCKVSNKALPAPIEKTISKAKGQPREPQVYTLPPSREEMTKNQVSLTCDVSGFYPSDIAVEWESDGQPENNYKTTPPVLDSDGSFFLYSKLTVDKSRWEQGDVFSCSVMHEALHNHYTQKSLSLSPGK
scFv-Fc: B4 scFv-Fc
light: DIVLTQSPASLSASVGESVTITCRPSENIYGYFAWYQQRQGKSPQLLVYNAKTLAEGVPSRFSGSGSGTHFSLKINSLQPEDFGTYYCQHHYGTPFTFGPGTKVDIKRTVAAPSVFIFPPSDEQLKSGTASVVCLLNNFYPREAKVQWKVDNALQSGNSQESVTEQDSKDSTYSLSSTLTLSKADYEKHKVYACEVTHQGLSSPVTKSFNRGEC
Kd [14]: 2.75 nM
